Residue numbers refer to the chain shown, from its start. In names and notes the source's numbering stands.
T1: human LAG-3 on the cell surface (human, UniProt P18627 23-525)
T1 sequence (looked up): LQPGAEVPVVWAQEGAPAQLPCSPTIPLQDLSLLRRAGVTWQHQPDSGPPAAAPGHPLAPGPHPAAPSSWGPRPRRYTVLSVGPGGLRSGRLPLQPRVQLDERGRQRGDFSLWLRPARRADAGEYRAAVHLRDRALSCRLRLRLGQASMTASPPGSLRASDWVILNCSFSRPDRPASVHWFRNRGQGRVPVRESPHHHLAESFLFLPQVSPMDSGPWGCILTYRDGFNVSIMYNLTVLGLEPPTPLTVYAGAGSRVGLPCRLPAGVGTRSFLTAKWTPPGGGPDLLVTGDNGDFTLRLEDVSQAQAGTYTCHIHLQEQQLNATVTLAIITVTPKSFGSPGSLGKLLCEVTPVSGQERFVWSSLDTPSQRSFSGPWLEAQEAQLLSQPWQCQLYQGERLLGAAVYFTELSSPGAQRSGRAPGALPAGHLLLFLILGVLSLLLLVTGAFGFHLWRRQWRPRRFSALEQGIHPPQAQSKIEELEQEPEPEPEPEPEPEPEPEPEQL

T2: human LAG-3-6*His tag recombinant fusion protein (human, UniProt P18627 23-450, biotin-labelled in panning and in Example 9)
T2 construct: Bought protein; also called hLAG-3-6*his tag recombinant protein; human LAG-3-his tag recombinant fusion protein
T2 sequence: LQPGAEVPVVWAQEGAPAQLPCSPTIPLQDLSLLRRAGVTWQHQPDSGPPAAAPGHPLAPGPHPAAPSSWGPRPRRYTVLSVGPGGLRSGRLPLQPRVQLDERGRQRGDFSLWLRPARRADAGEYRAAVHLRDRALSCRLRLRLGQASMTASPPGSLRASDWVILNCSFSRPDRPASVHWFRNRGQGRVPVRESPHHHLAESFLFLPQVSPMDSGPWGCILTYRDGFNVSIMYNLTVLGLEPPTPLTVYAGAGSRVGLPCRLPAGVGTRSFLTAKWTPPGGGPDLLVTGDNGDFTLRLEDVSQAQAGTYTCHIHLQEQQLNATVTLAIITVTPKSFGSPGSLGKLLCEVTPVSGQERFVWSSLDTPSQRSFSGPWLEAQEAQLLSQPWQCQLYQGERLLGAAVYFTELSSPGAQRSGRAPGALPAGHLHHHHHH

B1: MV705-3-VH-DD + ED-IgG4 (antibody, V domains shown)
VH: EVQLLESGAEVKKPGASVKVSCKASGYTFTSYGISWVRQAPGQGLEWMGWISAYNGNTNYAQKLQGRVTMTTDTSTSTAYMELRSLRSDDTAVYYCARDGWWELLRPEDAFDIWGQGTTVTVSS
VL: QLVLTQSPSVSVSPGQTASITCSGDKLGDKYAYWYQQKPGQAPVLVIYYDSDRPSGIPERFSGSNSGNTATLTISRVEAGDEADYYCQVWDSSSDQVVFGGGTQLTVLG
notes: human IgG4 S228P constant region, MV705-3 lambda light chain; also called 13386; 13386 (DD + ED)
B2: MV705-3-VH-DE + DD-IgG4 (antibody, V domains shown)
VH: B1 VH with D90E, E108D
VL: B1 VL
notes: human IgG4 S228P constant region, MV705-3 lambda light chain; also called 13380; 13380 (DE + DD)
B3: MV705-3-VH-DE + ED-IgG4 (antibody, V domains shown)
VH: B1 VH with D90E
VL: B1 VL
notes: human IgG4 S228P constant region, MV705-3 lambda light chain; also called 13563; 13563 (DE + ED)
B4: MV705-3-VH-ED + DD-IgG4 (antibody, V domains shown)
VH: B1 VH with D89E, E108D
VL: B1 VL
notes: human IgG4 S228P constant region, MV705-3 lambda light chain; also called 13381; 13381 (ED + DD)
B5: MV705-3-VH-ED + ED-IgG4 (antibody, V domains shown)
VH: B1 VH with D89E
VL: B1 VL
notes: human IgG4 S228P constant region, MV705-3 lambda light chain; also called 13616; 13616 (ED + ED)
B6: MV705-3-VH-DD + DE-IgG4 (antibody, V domains shown)
VH: B1 VH with E108D, D109E
VL: B1 VL
notes: human IgG4 S228P constant region, MV705-3 lambda light chain; also called 13365; 13365 (DD + DE)
B7: MV705-3-VH-DE + DE-IgG4 (antibody, V domains shown)
VH: B1 VH with D90E, E108D, D109E
VL: B1 VL
notes: human IgG4 S228P constant region, MV705-3 lambda light chain; also called 13565; 13565 (DE + DE)
B8: MV705-3-VH-ED + DE-IgG4 (antibody, V domains shown)
VH: B1 VH with D89E, E108D, D109E
VL: B1 VL
notes: human IgG4 S228P constant region, MV705-3 lambda light chain; also called 13564; 13564 (ED + DE)
B9: IgG4 monoclonal antibody 11446 (antibody, V domains shown)
VH: EVQLVESGGGVVQPGRSLRLSCAASGFTFSNYAMHWVRQAPGKGLEWVAVISYDGSDKYYADSVKGRFTISRDNSKNTLYLQMKSLRAEDTAVYYCARSIGFLESDAFDIWGQGTTVTVSS
VL: DIVLTQSPSSLSASVGDRVTITCQASHGISNFLNWYQQKPGKAPKLLIYDASTLETGVPSRFSGSGSGTDFRFTISSLQPEDIATYYCQQFDNLPITFGQGTRLEIK
notes: IgG4, kappa
B10: IgG4 monoclonal antibody 11471 (antibody, V domains shown)
VH: RVRLQESGPGLVKPSQTLSLTCTVSGGSISSSNWWSWVRQPPGKGLEWIGEIYHSGSTNYNPSLKSRVTISVDKSKNQFSLKLSSVTAADTAVYYCARDRAIRDAFDIWGQGTTVTVSS
VL: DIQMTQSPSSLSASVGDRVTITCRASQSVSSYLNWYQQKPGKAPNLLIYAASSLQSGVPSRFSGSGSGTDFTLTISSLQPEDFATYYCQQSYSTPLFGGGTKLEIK
notes: IgG4, kappa
B11: IgG4 monoclonal antibody 11487 (antibody, V domains shown)
VH: QVQLVESGGGLVQPGRSLRLSCVASGFTFDDHAMHWVRQTPEKGLEWVSGISWNGGDIRYADSVKGRFIISRDNAKNSLHLQMNSLRGEDTAVYYCARDGGYSVLRAFDIWGQGTTVTVSS
VL: QSVLTQPPSVSGAPGQRVTISCTGSSSNIGAGYDVHWYQQLPGTAPKLLIYGNSNRPSGVPDRFSGSKSGTSASLAITGLQAEDEADYYCQSYDSSLSGWVFGGGTQLIILG
notes: IgG4, lambda
B12: IgG4 monoclonal antibody 11455 (antibody, V domains shown)
VH: B9 VH with Q3H, S56N, D57N, K58Q, K84N, Y94F
VL: EIVLMQSPGTLSLSPGERATLSCRASQSFSDGSLAWYQQKPGQPPRLVIYDASKRATGIPDRFSGSRSGTEFTLTISSLQSEDFAVYSCQQYYNWPPTFGQGTRLEIK
notes: IgG4, kappa
B13: IgG4 monoclonal antibody 11454 (antibody, V domains shown)
VH: EVQLLQSGGGLVQPGGSLRLSCAASGFTFSSYEMNWVRQAPGKGLEWVSYISSSGSTIYYADSVKGRFTISRDNAKNSLYLQMNSLRAEDTAVYYCARVGLLDAFDIWGQGTMVTVSS
VL: QSVLTQPPSVSAAPGQKVTISCSGSSSNIGNNYVSWYQLIPEKAPRLLIYDDDKRPSGIPDRFSGSQSGTSATLGITGLQTGDEADYFCGTWDNSLSGAVFGGGTQLIILG
notes: IgG4, lambda
B14: scFv single chain antibody 11487 (scFv)
scFv: QVQLVESGGGLVQPGRSLRLSCVASGFTFDDHAMHWVRQTPEKGLEWVSGISWNGGDIRYADSVKGRFIISRDNAKNSLHLQMNSLRGEDTAVYYCARDGGYSVLRAFDIWGQGTTVTVSSGGGGSGGGGSGGGGSGGGGASQSVLTQPPSVSGAPGQRVTISCTGSSSNIGAGYDVHWYQQLPGTAPKLLIYGNSNRPSGVPDRFSGSKSGTSASLAITGLQAEDEADYYCQSYDSSLSGWVFGGGTQLIIL
notes: From phagemid pCLS1.0, which adds a C-terminal Myc-His tag
B15: scFv single chain antibody 11506 (scFv)
scFv: QLQLQESGPGLVKSSQTLSLTCSVSGDSISSGKYYWTWIRQPAGKGLEWLGRIHSSGFAQYNPSLKGRLTISVDTRKNEFSLKMTSVTAADTAVYYCARGGWNDPFDSWGQGTLVTVSSGGGGSGGGGSGGGGSGGGGASDIQMTQSPDSLAVSLGERATINCKSSQSVLYSSNNKNYLAWYQQKPGQPPKLLIYWASTRESGVPDRFSVSGSGTDFTLTISSLHAEDVAVYYCQQYYSTPITFGPGTKLEIK
notes: as for B14
B16: scFv single chain antibody 11507 (scFv)
scFv: QVQLQESGPGLVKPSETLSLTCTVSGYSISSGYYWGWIRQPPGKGLEWIGSIYHSGSTYYNPSLKSRVTISVDTSKNQFSLKLSSVTAADTAVYYCARDLQDWFDPWGQGTLVTVSSGGGGSGGGGSGGGGSGGGGASLAVLTHAPSASGTPGQRVTISCSGSKSNIGSNSVNWYQHLPGTAPKLLIHTNDQRPSGVPDRFAGSKSGTSASLTISGLRPEDEADYYCATWDDSMSGPVFGGGTELTVL
notes: as for B14

target: T1, human LAG-3 on the cell surface; experiment: cell-based or functional assay

Binder | EC50, ability to activate T cells in vitro (LAG3/NFAT Reporter-Jurkat) [mg/L]
B1 | > 30
B2 | 0.05
B3 | > 30
B4 | 0.1
B5 | > 30

target: T2, human LAG-3-6*His tag recombinant …; experiment: ELISA as in Example 4 (antibody coated, human LAG-3-6*His titrated)

Binder | EC50 [mg/L]
B6 | 1.29
B1 | 0.15
B7 | 3.13
B3 | 0.21
B8 | 2.43

target: T2, human LAG-3-6*His tag recombinant …; experiment: ELISA, human LAG-3-6*His coated at 1 µg/ml, IgG4 titrated, anti-hIgG HRP

Binder | EC50 [mg/L]
B9 | 85.6
B10 | 22.3
B11 | 3.35
B12 | 83.1
B13 | 85.8

target: T2, human LAG-3-6*His tag recombinant …; experiment: ELISA as in Example 4 (antibody coated, human LAG-3-6*His titrated); N = 2

Binder | EC50 [mg/L]
B5 | 0.21

target: T2, human LAG-3-6*His tag recombinant …; experiment: ELISA as in Example 4 (antibody coated, human LAG-3-6*His titrated); N = 3

Binder | EC50 [mg/L]
B2 | 0.044
B4 | 0.044

target: T1, human LAG-3 on the cell surface; experiment: flow cytometry on cells expressing the human LAG-3, PE anti-human IgG; N = 1

Binder | EC50 [mg/L]
B6 | > 10
B8 | > 0.01

target: T1, human LAG-3 on the cell surface; experiment: flow cytometry on cells expressing the human LAG-3, PE anti-human IgG; N = 2

Binder | EC50 [mg/L]
B7 | > 0.01
B5 | 0.0051

target: T1, human LAG-3 on the cell surface; experiment: flow cytometry on cells expressing the human LAG-3, PE anti-human IgG; N = 4

Binder | EC50 [mg/L]
B1 | 0.0059
B2 | 0.0018
B3 | 0.0047
B4 | 0.0022

target: T1, human LAG-3 on the cell surface; experiment: flow cytometry, soluble scFv supernatant on activated human CD4+ T cells, anti-His-PE

Binder | binding result
B14 | binds
B15 | binds
B16 | binds

— patent publication US20210147536A1 (MAB VENTURE BIOPHARM, published 2021)
